Source: PMC12669767

T1: NEDD4, endogenous in HEK293T, P46934
T1 chain: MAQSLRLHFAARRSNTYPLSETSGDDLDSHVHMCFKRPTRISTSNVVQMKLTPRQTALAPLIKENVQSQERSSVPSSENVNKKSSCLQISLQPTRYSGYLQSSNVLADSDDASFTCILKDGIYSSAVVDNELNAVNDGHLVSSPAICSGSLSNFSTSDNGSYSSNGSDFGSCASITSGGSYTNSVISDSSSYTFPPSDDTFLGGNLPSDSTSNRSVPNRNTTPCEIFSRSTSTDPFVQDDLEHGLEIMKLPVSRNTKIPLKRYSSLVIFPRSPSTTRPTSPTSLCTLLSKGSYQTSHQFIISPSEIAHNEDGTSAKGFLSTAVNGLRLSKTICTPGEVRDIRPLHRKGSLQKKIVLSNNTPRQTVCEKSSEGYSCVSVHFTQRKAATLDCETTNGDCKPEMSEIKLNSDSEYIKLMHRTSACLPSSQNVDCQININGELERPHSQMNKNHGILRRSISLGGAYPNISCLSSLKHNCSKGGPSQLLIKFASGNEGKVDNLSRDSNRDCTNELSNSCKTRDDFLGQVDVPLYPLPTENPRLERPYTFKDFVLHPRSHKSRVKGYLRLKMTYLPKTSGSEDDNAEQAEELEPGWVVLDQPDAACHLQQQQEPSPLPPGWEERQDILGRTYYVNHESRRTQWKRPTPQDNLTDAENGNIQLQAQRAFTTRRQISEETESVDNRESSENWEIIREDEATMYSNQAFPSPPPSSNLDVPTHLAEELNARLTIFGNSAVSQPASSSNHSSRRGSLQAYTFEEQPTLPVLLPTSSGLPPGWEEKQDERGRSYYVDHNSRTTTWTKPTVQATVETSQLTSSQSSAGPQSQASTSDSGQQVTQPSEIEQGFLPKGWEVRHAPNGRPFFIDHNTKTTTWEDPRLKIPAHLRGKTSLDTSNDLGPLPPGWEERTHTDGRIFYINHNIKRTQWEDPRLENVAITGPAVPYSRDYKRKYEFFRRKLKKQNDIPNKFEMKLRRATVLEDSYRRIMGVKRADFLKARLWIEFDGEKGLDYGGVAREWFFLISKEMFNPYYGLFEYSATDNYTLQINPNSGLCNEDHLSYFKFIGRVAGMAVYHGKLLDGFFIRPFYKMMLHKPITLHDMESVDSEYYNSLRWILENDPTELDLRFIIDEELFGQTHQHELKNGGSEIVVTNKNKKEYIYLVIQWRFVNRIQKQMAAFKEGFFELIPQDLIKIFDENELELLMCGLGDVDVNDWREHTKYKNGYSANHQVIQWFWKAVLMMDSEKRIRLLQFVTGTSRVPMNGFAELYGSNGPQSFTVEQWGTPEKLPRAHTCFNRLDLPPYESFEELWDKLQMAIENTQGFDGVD


Legend:
Experiment in all cases: co-immunoprecipitation of ALFA-TXNIP, label-free quantitative interactome (mass spectrometry)
Settings in all cases: chain shown with the change, immunoprecipitated from HEK293T cells, n = 3, read off a plot; for response (normalized abundance): abundances normalized to unspecific background binding to empty beads, scatter plot
[1] = molecular target: HECW2, endogenous in HEK293T, Q9P2P5
HECW2, endogenous in HEK293T, Q9P2P5, sequence (Q9P2P5 whole entry): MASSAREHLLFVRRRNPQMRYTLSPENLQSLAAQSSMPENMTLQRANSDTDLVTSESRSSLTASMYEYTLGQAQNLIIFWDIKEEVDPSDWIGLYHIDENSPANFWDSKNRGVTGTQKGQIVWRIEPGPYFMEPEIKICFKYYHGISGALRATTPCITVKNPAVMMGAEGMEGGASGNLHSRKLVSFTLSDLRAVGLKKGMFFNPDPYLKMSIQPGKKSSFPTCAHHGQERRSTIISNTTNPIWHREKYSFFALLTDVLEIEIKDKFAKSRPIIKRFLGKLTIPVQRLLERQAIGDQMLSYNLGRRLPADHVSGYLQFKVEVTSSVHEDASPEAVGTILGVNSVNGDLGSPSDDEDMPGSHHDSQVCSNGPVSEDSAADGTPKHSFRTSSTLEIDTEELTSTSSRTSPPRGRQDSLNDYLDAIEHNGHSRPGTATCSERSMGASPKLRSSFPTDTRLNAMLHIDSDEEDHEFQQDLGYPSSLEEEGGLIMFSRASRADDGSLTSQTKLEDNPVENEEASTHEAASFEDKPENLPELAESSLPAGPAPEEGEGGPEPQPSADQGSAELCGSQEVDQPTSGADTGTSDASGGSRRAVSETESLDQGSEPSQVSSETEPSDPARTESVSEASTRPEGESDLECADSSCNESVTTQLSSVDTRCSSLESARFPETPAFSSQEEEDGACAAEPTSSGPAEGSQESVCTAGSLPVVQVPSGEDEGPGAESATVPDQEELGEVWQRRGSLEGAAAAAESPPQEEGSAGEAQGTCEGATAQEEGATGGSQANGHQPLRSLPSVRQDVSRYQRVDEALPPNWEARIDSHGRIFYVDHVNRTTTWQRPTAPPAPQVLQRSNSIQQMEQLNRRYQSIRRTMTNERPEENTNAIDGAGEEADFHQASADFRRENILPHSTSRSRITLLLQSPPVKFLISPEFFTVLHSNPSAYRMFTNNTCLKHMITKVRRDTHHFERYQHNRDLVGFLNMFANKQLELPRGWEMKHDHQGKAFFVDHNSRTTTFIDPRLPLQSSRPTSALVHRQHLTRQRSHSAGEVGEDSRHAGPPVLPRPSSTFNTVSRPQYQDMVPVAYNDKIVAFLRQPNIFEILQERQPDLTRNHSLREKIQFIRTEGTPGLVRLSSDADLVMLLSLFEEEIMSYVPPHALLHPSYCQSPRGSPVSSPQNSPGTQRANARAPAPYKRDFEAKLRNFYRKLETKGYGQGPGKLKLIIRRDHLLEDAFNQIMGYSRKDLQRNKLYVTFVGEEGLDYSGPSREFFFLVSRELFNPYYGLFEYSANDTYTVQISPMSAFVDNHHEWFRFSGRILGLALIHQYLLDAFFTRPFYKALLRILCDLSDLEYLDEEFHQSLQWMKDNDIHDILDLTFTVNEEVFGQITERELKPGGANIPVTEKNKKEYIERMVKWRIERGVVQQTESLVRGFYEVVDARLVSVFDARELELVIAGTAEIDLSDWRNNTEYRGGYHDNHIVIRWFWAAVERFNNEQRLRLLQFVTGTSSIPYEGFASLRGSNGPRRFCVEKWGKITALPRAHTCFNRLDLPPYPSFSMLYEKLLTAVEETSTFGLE

[2] = molecular target: ITCH, endogenous in HEK293T, Q96J02
ITCH, endogenous in HEK293T, Q96J02, sequence (Q96J02 whole entry): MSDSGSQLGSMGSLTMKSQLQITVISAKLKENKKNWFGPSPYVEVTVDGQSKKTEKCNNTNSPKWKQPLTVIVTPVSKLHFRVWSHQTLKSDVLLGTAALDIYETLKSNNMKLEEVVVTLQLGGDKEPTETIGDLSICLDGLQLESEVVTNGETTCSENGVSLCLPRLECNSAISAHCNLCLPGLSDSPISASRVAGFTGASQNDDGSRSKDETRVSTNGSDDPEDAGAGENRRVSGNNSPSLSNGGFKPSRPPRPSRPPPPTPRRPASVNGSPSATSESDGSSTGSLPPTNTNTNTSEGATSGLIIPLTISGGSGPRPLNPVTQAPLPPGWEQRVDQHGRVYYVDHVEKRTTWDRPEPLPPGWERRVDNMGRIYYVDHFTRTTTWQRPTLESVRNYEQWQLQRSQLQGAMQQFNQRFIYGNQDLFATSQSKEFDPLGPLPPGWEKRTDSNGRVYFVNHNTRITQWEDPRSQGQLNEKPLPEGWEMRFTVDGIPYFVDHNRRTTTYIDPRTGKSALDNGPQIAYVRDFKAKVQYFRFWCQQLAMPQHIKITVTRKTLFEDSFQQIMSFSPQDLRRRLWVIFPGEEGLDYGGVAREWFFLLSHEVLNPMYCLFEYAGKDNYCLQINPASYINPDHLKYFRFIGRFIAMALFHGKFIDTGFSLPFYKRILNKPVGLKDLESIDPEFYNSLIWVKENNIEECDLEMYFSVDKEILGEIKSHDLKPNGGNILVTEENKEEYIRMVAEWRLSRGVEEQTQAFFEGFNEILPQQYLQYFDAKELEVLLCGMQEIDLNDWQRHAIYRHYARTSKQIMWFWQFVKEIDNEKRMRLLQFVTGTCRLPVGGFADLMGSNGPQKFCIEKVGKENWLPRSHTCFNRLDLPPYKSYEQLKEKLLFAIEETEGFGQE

[3] = molecular target: T1, NEDD4, endogenous in HEK293T, P46934
[4] = molecular target: WWP1, endogenous in HEK293T, Q9H0M0
[5] = molecular target: WWP2, endogenous in HEK293T, O00308
WWP2, endogenous in HEK293T, O00308, sequence (O00308 whole entry): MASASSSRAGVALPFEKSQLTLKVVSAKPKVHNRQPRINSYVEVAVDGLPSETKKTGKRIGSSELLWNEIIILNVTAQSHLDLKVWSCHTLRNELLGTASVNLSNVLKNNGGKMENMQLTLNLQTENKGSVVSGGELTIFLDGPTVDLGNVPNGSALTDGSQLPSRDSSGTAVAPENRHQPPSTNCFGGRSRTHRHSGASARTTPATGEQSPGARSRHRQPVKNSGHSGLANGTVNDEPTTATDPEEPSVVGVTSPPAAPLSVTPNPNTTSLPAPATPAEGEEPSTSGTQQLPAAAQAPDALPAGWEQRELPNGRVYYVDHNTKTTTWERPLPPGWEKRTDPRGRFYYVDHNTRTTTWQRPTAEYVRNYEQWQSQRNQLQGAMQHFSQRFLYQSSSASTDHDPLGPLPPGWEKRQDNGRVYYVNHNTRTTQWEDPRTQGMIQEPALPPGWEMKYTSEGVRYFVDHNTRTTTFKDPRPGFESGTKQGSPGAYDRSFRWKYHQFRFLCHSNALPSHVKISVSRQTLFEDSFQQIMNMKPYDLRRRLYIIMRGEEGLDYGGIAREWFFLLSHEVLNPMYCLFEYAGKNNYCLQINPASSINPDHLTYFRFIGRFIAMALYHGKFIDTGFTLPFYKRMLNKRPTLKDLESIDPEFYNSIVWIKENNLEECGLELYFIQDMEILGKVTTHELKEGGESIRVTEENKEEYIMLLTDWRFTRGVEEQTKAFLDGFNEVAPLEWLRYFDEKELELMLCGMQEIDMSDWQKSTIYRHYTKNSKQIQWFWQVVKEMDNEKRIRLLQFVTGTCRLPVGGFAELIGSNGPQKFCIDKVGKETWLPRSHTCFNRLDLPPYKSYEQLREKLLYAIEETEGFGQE

| Binder | response (normalized abundance) ([1]; parent: est. 1.0e8) | other: log2 PPxY331/WT [1] [log2] | response (normalized abundance) ([2]; parent: est. 3.0e8) | other: log2 PPxY331/WT [2] [log2] | response (normalized abundance) ([3]; parent: est. 4.5e8) | other: log2 PPxY331/WT [3] [log2] | response (normalized abundance) ([4]; parent: est. 3.2e8) | other: log2 PPxY331/WT [4] [log2] | response (normalized abundance) ([5]; parent: est. 1.4e9) | other: log2 PPxY331/WT [5] [log2] | response (normalized abundance) ([1]; parent: est. 1.3e8) | response (normalized abundance) ([2]; parent: est. 3.5e8) | other: log2 PPxY/WT ([2]; volcano plot) [log2] | response (normalized abundance) ([3]; parent: est. 5.0e8) | other: log2 PPxY/WT ([3]; volcano plot) [log2] | response (normalized abundance) ([4]; parent: est. 3.5e8) | other: log2 PPxY/WT ([4]; volcano plot) [log2] | response (normalized abundance) ([5]; parent: est. 1.3e9) |
| --- | --- | --- | --- | --- | --- | --- | --- | --- | --- | --- | --- | --- | --- | --- | --- | --- | --- | --- |
| ALFA-tagged TXNIP (thioredoxin interacting protein), expressed in HEK293T, Q9H3M7 PPCY331AACA (protein) MVMFKKIKSFEVVFNDPEKVYGSGEKVAGRVIVEVCEVTRVKAVRILACGVAKVLWMQGSQQCKQTSEYLRYEDTLLLEDQPTGENEMVIMRPGNKYEYKFGFELPQGPLGTSFKGKYGCVDYWVKAFLDRPSQPTQETKKNFEVVDLVDVNTPDLMAPVSAKKEKKVSCMFIPDGRVSVSARIDRKGFCEGDEISIHADFENTCSRIVVPKAAIVARHTYLANGQTKVLTQKLSSVRGNHIISGTCASWRGKSLRVQKIRPSILGCNILRVEYSLLIYVSVPGSKKVILDLPLVIGSRSGLSSRTSSMASRTSSEMSWVDLNIPDTPEAAACAMDVIPEDHRLESPTTPLLDDMDGSQDSPIFMYAPEFKFMPPPTYTEVDPCILNNNVQ | 1.3e+06 | -4.1 | 1.5e+08 | -1.1 | 1.2e+08 | -1.7 | 8.5e+07 | -1.5 | 4.5e+08 | -1.8 | – | – | – | – | – | – | – | – |
| ALFA-tagged TXNIP (thioredoxin interacting protein), expressed in HEK293T, Q9H3M7 PPCY331AACA; PPTY375AATA (protein) MVMFKKIKSFEVVFNDPEKVYGSGEKVAGRVIVEVCEVTRVKAVRILACGVAKVLWMQGSQQCKQTSEYLRYEDTLLLEDQPTGENEMVIMRPGNKYEYKFGFELPQGPLGTSFKGKYGCVDYWVKAFLDRPSQPTQETKKNFEVVDLVDVNTPDLMAPVSAKKEKKVSCMFIPDGRVSVSARIDRKGFCEGDEISIHADFENTCSRIVVPKAAIVARHTYLANGQTKVLTQKLSSVRGNHIISGTCASWRGKSLRVQKIRPSILGCNILRVEYSLLIYVSVPGSKKVILDLPLVIGSRSGLSSRTSSMASRTSSEMSWVDLNIPDTPEAAACAMDVIPEDHRLESPTTPLLDDMDGSQDSPIFMYAPEFKFMPAATATEVDPCILNNNVQ | – | – | – | – | – | – | – | – | – | – | 80000 | 150000 | -4.5 | 1e+08 | -2.2 | 1.6e+06 | -3 | 800000 |
